From patent publication US20190315864A1

Biological target: Fc protein
Test: ELISA, Fc protein coated, 10 ng VHH/well

OD (against Fc) | Binder
0.752 OD405 | CTLA4 heavy chain single domain antibody No. J38 (VHH) VHH: QVQLQESGGGSVQAGGSLRLSCAPSRYSGALMGWFRQAPGKEREGVAVISRSGLTTYYADSVKGRFTISQDTAKNTIYLQMNSMKPEDTAMYYCVAGWHVGGTWSETSSYDYWGQGTQVTVSS
1.02 OD405 | CTLA4 heavy chain single domain antibody No. 188 (VHH) VHH: QVQLQESGGGSVQAGGSLRLSCAASGYTYSSVCMGWFRQALGKEREAVVGIDGDGITMYANSVKGRFTISKDNAKNTLYLQMNSLKPEDTAMYYCASGGGQGDGSCALTYWGQGTQVTVSS
